Bridge positions count the residues as written; N and C are the ends. Square brackets hold non-standard residues; d marks the D form. Ends that are not written are not given here. * marks the point of attachment. Pen = CC(C)(S)[C@H](N)C(=O)O; Tle = CC(C)(C)[C@H](N)C(=O)O; Pip = O=C(O)[C@@H]1CCCCN1; Propionyl = CCC(=O)*; Sar = CNCC(=O)O

To fix the notation:
B1: compound XVIII, SEQ ID NO: 9-[Trp11, Tle12]NT(8-13) (peptide)
peptide: Propionyl-[dC]M[Pip]RLR[Sar]CRRPW[Tle]L-OH
modifications: disulfide 1-8
SMILES: CCC(=O)N[C@@H]1CSSC[C@@H](C(=O)N[C@@H](CCCNC(=N)N)C(=O)N[C@@H](CCCNC(=N)N)C(=O)N2CCC[C@H]2C(=O)N[C@@H](Cc2c[nH]c3ccccc23)C(=O)N[C@H](C(=O)N[C@@H](CC(C)C)C(=O)O)C(C)(C)C)NC(=O)CN(C)C(=O)[C@H](CCCNC(=N)N)NC(=O)[C@H](CC(C)C)NC(=O)[C@H](CCCNC(=N)N)NC(=O)[C@@H]2CCCCN2C(=O)[C@H](CCSC)NC1=O
B2: [Lys8, Tle12]NT(8-13) (peptide)
peptide: KRPY[Tle]L
notes: X stands for Tle
B3: [Trp11, Tle12]NT(8-13) (peptide)
peptide: RRPW[Tle]L
notes: X stands for Tle
B4: [Lys8, Trp11, Tle12]NT(8-13) (peptide)
peptide: KRPW[Tle]L
notes: X stands for Tle
B5: [Lys9, Tle12]NT(8-13) (peptide)
peptide: RKPY[Tle]L
notes: X stands for Tle
B6: compound XIX, SEQ ID NO: 9-[Lys8, Trp11, Tle12]NT(8-13) (peptide)
peptide: Propionyl-[dC]M[Pip]RLR[Sar]CKRPW[Tle]L-OH
modifications: disulfide 1-8
SMILES: CCC(=O)N[C@@H]1CSSC[C@@H](C(=O)N[C@@H](CCCCN)C(=O)N[C@@H](CCCNC(=N)N)C(=O)N2CCC[C@H]2C(=O)N[C@@H](Cc2c[nH]c3ccccc23)C(=O)N[C@H](C(=O)N[C@@H](CC(C)C)C(=O)O)C(C)(C)C)NC(=O)CN(C)C(=O)[C@H](CCCNC(=N)N)NC(=O)[C@H](CC(C)C)NC(=O)[C@H](CCCNC(=N)N)NC(=O)[C@@H]2CCCCN2C(=O)[C@H](CCSC)NC1=O
B7: compound XX, SEQ ID NO: 11-[Lys8, Tle12]NT(8-13) (peptide)
peptide: Propionyl-[dC]M[Pip]RLR[Sar][Pen]KRPY[Tle]L-OH
modifications: disulfide 1-8
SMILES: CCC(=O)N[C@@H]1CSSC(C)(C)[C@@H](C(=O)N[C@@H](CCCCN)C(=O)N[C@@H](CCCNC(=N)N)C(=O)N2CCC[C@H]2C(=O)N[C@@H](Cc2ccc(O)cc2)C(=O)N[C@H](C(=O)N[C@@H](CC(C)C)C(=O)O)C(C)(C)C)NC(=O)CN(C)C(=O)[C@H](CCCNC(=N)N)NC(=O)[C@H](CC(C)C)NC(=O)[C@H](CCCNC(=N)N)NC(=O)[C@@H]2CCCCN2C(=O)[C@H](CCSC)NC1=O
B8: compound XVI, SEQ ID NO: 9-[Lys8, Tle12]NT(8-13) (peptide)
peptide: Propionyl-[dC]M[Pip]RLR[Sar]CKRPY[Tle]L-OH
modifications: disulfide 1-8
SMILES: CCC(=O)N[C@@H]1CSSC[C@@H](C(=O)N[C@@H](CCCCN)C(=O)N[C@@H](CCCNC(=N)N)C(=O)N2CCC[C@H]2C(=O)N[C@@H](Cc2ccc(O)cc2)C(=O)N[C@H](C(=O)N[C@@H](CC(C)C)C(=O)O)C(C)(C)C)NC(=O)CN(C)C(=O)[C@H](CCCNC(=N)N)NC(=O)[C@H](CC(C)C)NC(=O)[C@H](CCCNC(=N)N)NC(=O)[C@@H]2CCCCN2C(=O)[C@H](CCSC)NC1=O
B9: compound XVII, SEQ ID NO: 9-[Lys9, Tle12]NT(8-13) (peptide)
peptide: Propionyl-[dC]M[Pip]RLR[Sar]CRKPY[Tle]L-OH
modifications: disulfide 1-8
SMILES: CCC(=O)N[C@@H]1CSSC[C@@H](C(=O)N[C@@H](CCCNC(=N)N)C(=O)N[C@@H](CCCCN)C(=O)N2CCC[C@H]2C(=O)N[C@@H](Cc2ccc(O)cc2)C(=O)N[C@H](C(=O)N[C@@H](CC(C)C)C(=O)O)C(C)(C)C)NC(=O)CN(C)C(=O)[C@H](CCCNC(=N)N)NC(=O)[C@H](CC(C)C)NC(=O)[C@H](CCCNC(=N)N)NC(=O)[C@@H]2CCCCN2C(=O)[C@H](CCSC)NC1=O
B10: compound XV, SEQ ID NO: 9-[Tle12]NT(8-13) (peptide)
peptide: Propionyl-[dC]M[Pip]RLR[Sar]CRRPY[Tle]L-OH
modifications: disulfide 1-8
SMILES: CCC(=O)N[C@@H]1CSSC[C@@H](C(=O)N[C@@H](CCCNC(=N)N)C(=O)N[C@@H](CCCNC(=N)N)C(=O)N2CCC[C@H]2C(=O)N[C@@H](Cc2ccc(O)cc2)C(=O)N[C@H](C(=O)N[C@@H](CC(C)C)C(=O)O)C(C)(C)C)NC(=O)CN(C)C(=O)[C@H](CCCNC(=N)N)NC(=O)[C@H](CC(C)C)NC(=O)[C@H](CCCNC(=N)N)NC(=O)[C@@H]2CCCCN2C(=O)[C@H](CCSC)NC1=O
B11: compound X, SEQ ID NO: 9-GGG-NT(6-13) (peptide)
peptide: Propionyl-[dC]M[Pip]RLR[Sar]CGGGKPRRPYIL-OH
modifications: disulfide 1-8
SMILES: CCC(=O)N[C@@H]1CSSC[C@@H](C(=O)NCC(=O)NCC(=O)NCC(=O)N[C@@H](CCCCN)C(=O)N2CCC[C@H]2C(=O)N[C@@H](CCCNC(=N)N)C(=O)N[C@@H](CCCNC(=N)N)C(=O)N2CCC[C@H]2C(=O)N[C@@H](Cc2ccc(O)cc2)C(=O)N[C@H](C(=O)N[C@@H](CC(C)C)C(=O)O)[C@@H](C)CC)NC(=O)CN(C)C(=O)[C@H](CCCNC(=N)N)NC(=O)[C@H](CC(C)C)NC(=O)[C@H](CCCNC(=N)N)NC(=O)[C@@H]2CCCCN2C(=O)[C@H](CCSC)NC1=O

T1 sequence (P20789 whole entry): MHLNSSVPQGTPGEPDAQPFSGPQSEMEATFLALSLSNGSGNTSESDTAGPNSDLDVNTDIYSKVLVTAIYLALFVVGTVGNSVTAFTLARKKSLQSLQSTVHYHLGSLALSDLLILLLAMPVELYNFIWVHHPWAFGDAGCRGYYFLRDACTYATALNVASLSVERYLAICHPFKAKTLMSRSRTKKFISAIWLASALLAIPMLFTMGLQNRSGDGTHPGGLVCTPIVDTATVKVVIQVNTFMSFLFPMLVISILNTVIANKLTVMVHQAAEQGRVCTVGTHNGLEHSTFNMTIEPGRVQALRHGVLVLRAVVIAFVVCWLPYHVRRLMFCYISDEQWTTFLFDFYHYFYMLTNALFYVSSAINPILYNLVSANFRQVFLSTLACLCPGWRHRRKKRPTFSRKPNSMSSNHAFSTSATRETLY
T2 sequence (P30989 whole entry): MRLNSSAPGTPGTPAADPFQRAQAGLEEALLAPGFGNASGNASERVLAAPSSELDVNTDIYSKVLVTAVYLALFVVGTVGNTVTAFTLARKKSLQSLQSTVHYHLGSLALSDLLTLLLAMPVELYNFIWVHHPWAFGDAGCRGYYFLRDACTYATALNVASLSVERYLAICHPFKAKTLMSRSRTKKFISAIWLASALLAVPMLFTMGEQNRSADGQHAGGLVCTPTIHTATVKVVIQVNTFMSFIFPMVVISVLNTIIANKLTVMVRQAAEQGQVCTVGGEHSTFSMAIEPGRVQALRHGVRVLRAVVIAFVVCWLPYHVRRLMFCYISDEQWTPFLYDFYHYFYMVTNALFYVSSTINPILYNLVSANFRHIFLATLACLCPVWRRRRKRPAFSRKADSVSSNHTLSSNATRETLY

The first assay addresses T1, rat neurotensin receptor type 1 (rat, UniProt P20789 1-424).
T1 construct: whole, on cells; Used as membrane homogenates of transfected HEK 293 cells (0.75 ug/well), not intact cells; also called rNTR-1; rNTR1
The assay can be described thus: competition with [3H]-neurotensin on membranes of HEK 293 cells expressing rat NTR-1; Ki from mean IC50 by Cheng-Prusoff.
Broadly, the Ki is the equilibrium dissociation constant of an inhibitor or competing ligand from its target. A high value points to lower affinity. Regarding B1, the Ki is 0.02 nM.

B2 displayed a Ki of 0.68 nM.

Regarding B3, the Ki came to 0.85 nM.

Molecule B4 showed a Ki of 3.31 nM.

B5: affinity was put at a Ki of 4.2 nM.

Turning to B6, the Ki was 0.03 nM.

B7 returned a Ki of 0.08 nM.

Turning to B8, the Ki worked out at 0.12 nM.

On to B9, for which the Ki turned out to be 0.19 nM.

As for B10, the Ki was found to be 0.06 nM.

The next assay addresses T2, human neurotensin receptor type 1 (human, UniProt P30989 1-418).
T2 construct: whole, on cells; Used as cell membrane homogenates (0.5 ug/well), not intact cells; also called hNTR-1; Human NTR-1
The assay can be described thus: competition with [3H]-neurotensin on membranes of CHO cells expressing human NTR-1; Ki from mean IC50 by Cheng-Prusoff.
B1 came in with a Ki of 2.98 nM.

For the molecule B11, the affinity, expressed as Ki, was 0.13 nM.

Consider B2, for which affinity was put at a Ki of 0.22 nM.

B3 displayed a Ki of 3.1 nM.

B4 came in with a Ki of 13.8 nM.

B5 displayed a Ki of 1.7 nM.

Turning to B6, the Ki amounted to 6.34 nM.

For the molecule B7, the Ki worked out at 0.11 nM.

With B8, the Ki was 0.15 nM.

Molecule B9 returned a Ki of 0.47 nM.

Molecule B10 showed a Ki of 0.4 nM.

(Values after patent publication US20160354480A1 (VECT HORUS, published 2016).)
